The target of experiment [1] is T1, Chlamydomonas reinhardtii Rubisco holoenzyme (L8S8) (Chlamydomonas reinhardtii, UniProt P00877 3-475).
T1 construct: Purified from C. reinhardtii strain cMJ030 (sucrose gradient, anion exchange); also called purified Rubisco; Cr L8S8 Rubisco
Briefly: SPR, Rubisco immobilized, peptide at 0-4.0 mM in solution (FIG. 4C). From the text: FIGS. 4A-4C show the EPYC1 fragment that was used to generate the cryoelectron microscopy structure shown in FIGS. 5A-5D, as well as the binding affinity of the EPYC1 fragment for Rubisco. […] The four nearly identical repeats (Repeats 1-4), flanked by short N- and C- termini are indicated. The dark grey boxes represent the ten RBMs on EPYC1. The dark grey bar above the boxes (“EPYC1 peptide”) spans RBM 2 of EPYC1 and represents the 24 amino acid EPYC1 fragment (SEQ ID NO: 51) that was used to generate the cryoelectron microscopy structure of Rubisco bound to the RBM 2 EPYC1 fragment shown in FIGS. 5A-5D. FIGS. 4B-4C provide results of SPR experiments to determine the binding affinity of the 24 amino acid EPYC1 fragment diagramed in FIG. 4A for Rubisco. […] The response difference (Resp. Diff., in RU) is shown on the y-axis.
Surface Plasmon Resonance (SPR) Assay Rubisco was immobilized on a surface and peptides in solution were flowed over the surface. Surface plasmon measurements of binding of individual peptides to Rubisco were assayed (FIG. 3B).

The target of experiment [2] is T1, Chlamydomonas reinhardtii Rubisco …. Nature of the experiment: SPR; highest binding affinity of all peptides tested. A general note: SPR reads the build-up and loss of mass on a sensor chip optically.
Experiment [3] has the same target. Nature of the experiment: SPR, steady-state fit.
Experiment [4] addresses S1Cr_M87D (Chlamydomonas reinhardtii). Nature of the experiment: cell-based or functional assay.
Experiment [5] concerns the target S1Cr_V94D (Chlamydomonas reinhardtii). Nature of the experiment: cell-based or functional assay.
The target of experiment [6] is Chlamydomonas reinhardtii Rubisco small subunit 1 (Chlamydomonas reinhardtii, UniProt P00873 46-185). Briefly: cell-based or functional assay.
The target in experiment [7] is T2, S1Cr_D23A+E24A.
T2 construct: variant of m7
T2 chain: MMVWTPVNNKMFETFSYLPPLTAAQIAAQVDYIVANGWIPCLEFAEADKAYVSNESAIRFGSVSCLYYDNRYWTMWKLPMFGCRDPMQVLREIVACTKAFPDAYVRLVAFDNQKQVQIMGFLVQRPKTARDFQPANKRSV
Briefly: yeast two-hybrid, EPYC1 as BD and SSU variant as AD. An excerpt: (§1) FIGS. 9A-9C show the results of a yeast two-hybrid (Y2H) assay to measure the interaction between EPYC1 and Rubisco SSU variants. […] The images shown were taken following three days of cell growth. The Rubisco SSU residues that form salt bridges with EPYC1 residues are bolded (D23, E24, and R91) and the residues that form the hydrophobic pocket with EPYC1 residues are bolded and italicized (M87 and V94). The “Control” images were taken from cells grown for three days on SD-L-W media and the “Test” images were taken from cells grown for three days on SD-L-W-H with 3-AT. Growth of yeast cells expressing the indicated EPYC1 and Rubisco SSU variants was measured after three days on SD-L-W-H with varying 3-AT concentrations. The highest concentration of 3-AT (0, 1, 2.5, 5, 10, and 20 mM) permissive for the growth of each EPYC1 and Rubisco SSU variant combination is shown, as indicated in the “Key” on the right.
(§2) Mutagenesis of EPYC1, Mutagenesis of Rubisco, Yeast Two-hybrid, Peptide Arrays and SPR Assays To determine the importance of individual EPYC1 residues for binding to Rubisco, the impact on Rubisco binding of every possible single amino acid substitution for EPYC1 RBM 2 was determined (FIG. 8). To determine the importance of individual Rubisco residues for binding to EPYC1, targeted mutations of the amino acids identified from atomic modeling were tested in a yeast two-hybrid assay as in van Nues and Beggs (Genetics 157: 1451-1467, 2000). Peptide arrays and SPR assays were performed as in Example 1.

Experiment [8] concerns the target T3, S1Cr_D23A+E24A+R91A.
T3 construct: variant of m7
T3 chain: T2 chain with R91A
The description is as above.
Description: as §1, §2

The target in experiment [9] is T4, S1Cr_D23A.
T4 construct: variant of m7
T4 chain: T2 chain with A24E
The description is as above.
Description: as §1, §2

Experiment [10] has as its target T5, S1Cr_M87D/V94D.
T5 construct: variant of m7
T5 chain: T2 chain with A23D, A24E, M87D, V94D
Nature of the experiment: yeast two-hybrid, Control SD-L-W, Test SD-L-W-H with 3-AT (concentration not given).
Description: as §1
Mutagenesis of EPYC1, Mutagenesis of Rubisco, Yeast Two-hybrid, Peptide Arrays and SPR Assays To determine the importance of individual EPYC1 residues for binding to Rubisco, the impact on Rubisco binding of every possible single amino acid substitution for EPYC1 RBM 2 was determined (FIG. 8). […]

Substitutions are numbered along the chain they refer to.

B1: 24 amino acid EPYC1 fragment spanning RBM 2 (peptide)
peptide: TNRVSPTRSVLPANWRQELESLRN
notes: also called EPYC1 peptide; RBM 2 EPYC1 fragment
The term Kd denotes the constant that tells how readily two partners part at equilibrium. Regarding B1, the equilibrium dissociation constant (Kd) in [1] was found to be 3.09 mM; in experiment [2], 3 mM. Moreover, in experiment [3], the Ka turned out to be 324 M⁻¹.

B2: Chlamydomonas reinhardtii Essential Pyrenoid Component 1 (EPYC1) (other)
chain: MATISSMRVGAASRVVVSGRVKTVKVAARGSWRESSTATVQASRASSATNRVSPTRSVLPANWRQELESLRNGNGSSSAASSAPAPARSSSASWRDAAPASSAPARSSSASKKAVTPSRSALPSNWKQELESLRSSSPAPASSAPAPARSSSASWRDAAPASSAPARSSSSKKAVTPSRSALPSNWKQELESLRSSSPAPASSAPAPARSSSASWRDAAPASSAPARSSSASKKAVTPSRSALPSNWKQELESLRSNSPAPASSAPAPARSSSASWRDAPASSSSSSADKAGTNPWTGKSKPEIKRTALPADWRKGL
notes: also called WT EPYC1
Regarding B2, the “highest 3-AT concentration permissive for growth (Y2H), box pattern read against the printed key” value amounted to 0 mM 3-AT in experiment [4], 0 mM 3-AT in [5] and 20 mM 3-AT in [6]. Moreover, the binding result in experiment [7], in [8], in [9] and in [10] was “no binding” in each case.

Values taken from patent US20220275390A1 (TRUSTEES OF PRINCETON UNIVERSITY, published 2022).
